According to article PMC7483370 (Molecular cell, 2020):

B1: Flag-tagged AR (1-669aa), deletion mutant lacking the LBD (domain or fragment, human, UniProt P10275 1-669, looked up)
chain: MEVQLGLGRVYPRPPSKTYRGAFQNLFQSVREVIQNPGPRHPEAASAAPPGASLLLLQQQQQQQQQQQQQQQQQQQQQQQETSPRQQQQQQGEDGSPQAHRRGPTGYLVLDEEQQPSQPQSALECHPERGCVPEPGAAVAASKGLPQQLPAPPDEDDSAAPSTLSLLGPTFPGLSSCSADLKDILSEASTMQLLQQQQQEAVSEGSSSGRAREASGAPTSSKDNYLGGTSTISDNAKELCKAVSVSMGLGVEALEHLSPGEQLRGDCMYAPLLGVPPAVRPTPCAPLAECKGSLLDDSAGKSTEDTAEYSPFKGGYTKGLEGESLGCSGSAAAGSSGTLELPSTLSLYKSGALDEAAAYQSRDYYNFPLALAGPPPPPPPPHPHARIKLENPLDYGSAWAAAAAQCRYGDLASLHGAGAAGPGSGSPSAAASSSWHTLFTAEEGQLYGPCGGGGGGGGGGGGGGGGGGGGGGGEAGAVAPYGYTRPPQGLAGQESDFTAPDVWYPGGMVSRVPYPSPTCVKSEMGPWMDSYSGPYGDMRLETARDHVLPIDYYFPPQKTCLICGDEASGCHYGALTCGSCKVFFKRAAEGKQKYLCASRNDCTIDKFRRKNCPSCRLRKCYEAGMTLGARKLKKLGNLKLQEEGEASSTTSPTEETTQKLTVSHIEGYE
B2: SRC-3, purified recombinant (baculovirus) (natural protein)
chain: not shown

How the values were obtained:
[1] = target: p300, purified recombinant (baculovirus) (human, UniProt Q09472 1-2414); experiment: co-IP
[2] = target: T1, Androgen receptor, full-length, flag-tagged, recombinant (baculovirus) (human, UniProt P10275 1-920); experiment: cryo-EM structure
T1 sequence (looked up): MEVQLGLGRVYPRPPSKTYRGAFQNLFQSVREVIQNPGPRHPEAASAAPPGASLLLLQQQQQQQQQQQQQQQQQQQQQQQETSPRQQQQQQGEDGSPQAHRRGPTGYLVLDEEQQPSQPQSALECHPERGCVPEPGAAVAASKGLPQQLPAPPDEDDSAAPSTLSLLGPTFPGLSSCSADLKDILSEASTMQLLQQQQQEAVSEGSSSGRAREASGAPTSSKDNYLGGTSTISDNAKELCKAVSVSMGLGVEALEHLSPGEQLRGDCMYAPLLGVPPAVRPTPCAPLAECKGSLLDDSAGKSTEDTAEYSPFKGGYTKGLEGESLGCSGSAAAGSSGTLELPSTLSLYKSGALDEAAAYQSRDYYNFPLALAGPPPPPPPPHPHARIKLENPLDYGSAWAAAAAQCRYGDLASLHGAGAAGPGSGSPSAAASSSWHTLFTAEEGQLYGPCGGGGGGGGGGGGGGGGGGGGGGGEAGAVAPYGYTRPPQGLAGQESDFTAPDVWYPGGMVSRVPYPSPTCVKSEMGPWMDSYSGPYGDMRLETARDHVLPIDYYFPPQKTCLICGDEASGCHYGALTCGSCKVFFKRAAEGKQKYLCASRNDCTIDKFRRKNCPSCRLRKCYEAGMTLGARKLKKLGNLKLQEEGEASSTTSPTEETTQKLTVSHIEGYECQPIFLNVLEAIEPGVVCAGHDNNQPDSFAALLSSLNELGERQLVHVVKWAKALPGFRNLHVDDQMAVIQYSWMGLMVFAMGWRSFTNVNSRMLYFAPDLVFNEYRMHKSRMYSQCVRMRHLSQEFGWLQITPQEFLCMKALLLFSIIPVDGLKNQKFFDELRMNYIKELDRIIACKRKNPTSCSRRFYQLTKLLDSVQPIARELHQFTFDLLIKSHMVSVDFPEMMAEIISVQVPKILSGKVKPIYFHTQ

Sequence of p300, purified recombinant (baculovirus) (Q09472 whole entry): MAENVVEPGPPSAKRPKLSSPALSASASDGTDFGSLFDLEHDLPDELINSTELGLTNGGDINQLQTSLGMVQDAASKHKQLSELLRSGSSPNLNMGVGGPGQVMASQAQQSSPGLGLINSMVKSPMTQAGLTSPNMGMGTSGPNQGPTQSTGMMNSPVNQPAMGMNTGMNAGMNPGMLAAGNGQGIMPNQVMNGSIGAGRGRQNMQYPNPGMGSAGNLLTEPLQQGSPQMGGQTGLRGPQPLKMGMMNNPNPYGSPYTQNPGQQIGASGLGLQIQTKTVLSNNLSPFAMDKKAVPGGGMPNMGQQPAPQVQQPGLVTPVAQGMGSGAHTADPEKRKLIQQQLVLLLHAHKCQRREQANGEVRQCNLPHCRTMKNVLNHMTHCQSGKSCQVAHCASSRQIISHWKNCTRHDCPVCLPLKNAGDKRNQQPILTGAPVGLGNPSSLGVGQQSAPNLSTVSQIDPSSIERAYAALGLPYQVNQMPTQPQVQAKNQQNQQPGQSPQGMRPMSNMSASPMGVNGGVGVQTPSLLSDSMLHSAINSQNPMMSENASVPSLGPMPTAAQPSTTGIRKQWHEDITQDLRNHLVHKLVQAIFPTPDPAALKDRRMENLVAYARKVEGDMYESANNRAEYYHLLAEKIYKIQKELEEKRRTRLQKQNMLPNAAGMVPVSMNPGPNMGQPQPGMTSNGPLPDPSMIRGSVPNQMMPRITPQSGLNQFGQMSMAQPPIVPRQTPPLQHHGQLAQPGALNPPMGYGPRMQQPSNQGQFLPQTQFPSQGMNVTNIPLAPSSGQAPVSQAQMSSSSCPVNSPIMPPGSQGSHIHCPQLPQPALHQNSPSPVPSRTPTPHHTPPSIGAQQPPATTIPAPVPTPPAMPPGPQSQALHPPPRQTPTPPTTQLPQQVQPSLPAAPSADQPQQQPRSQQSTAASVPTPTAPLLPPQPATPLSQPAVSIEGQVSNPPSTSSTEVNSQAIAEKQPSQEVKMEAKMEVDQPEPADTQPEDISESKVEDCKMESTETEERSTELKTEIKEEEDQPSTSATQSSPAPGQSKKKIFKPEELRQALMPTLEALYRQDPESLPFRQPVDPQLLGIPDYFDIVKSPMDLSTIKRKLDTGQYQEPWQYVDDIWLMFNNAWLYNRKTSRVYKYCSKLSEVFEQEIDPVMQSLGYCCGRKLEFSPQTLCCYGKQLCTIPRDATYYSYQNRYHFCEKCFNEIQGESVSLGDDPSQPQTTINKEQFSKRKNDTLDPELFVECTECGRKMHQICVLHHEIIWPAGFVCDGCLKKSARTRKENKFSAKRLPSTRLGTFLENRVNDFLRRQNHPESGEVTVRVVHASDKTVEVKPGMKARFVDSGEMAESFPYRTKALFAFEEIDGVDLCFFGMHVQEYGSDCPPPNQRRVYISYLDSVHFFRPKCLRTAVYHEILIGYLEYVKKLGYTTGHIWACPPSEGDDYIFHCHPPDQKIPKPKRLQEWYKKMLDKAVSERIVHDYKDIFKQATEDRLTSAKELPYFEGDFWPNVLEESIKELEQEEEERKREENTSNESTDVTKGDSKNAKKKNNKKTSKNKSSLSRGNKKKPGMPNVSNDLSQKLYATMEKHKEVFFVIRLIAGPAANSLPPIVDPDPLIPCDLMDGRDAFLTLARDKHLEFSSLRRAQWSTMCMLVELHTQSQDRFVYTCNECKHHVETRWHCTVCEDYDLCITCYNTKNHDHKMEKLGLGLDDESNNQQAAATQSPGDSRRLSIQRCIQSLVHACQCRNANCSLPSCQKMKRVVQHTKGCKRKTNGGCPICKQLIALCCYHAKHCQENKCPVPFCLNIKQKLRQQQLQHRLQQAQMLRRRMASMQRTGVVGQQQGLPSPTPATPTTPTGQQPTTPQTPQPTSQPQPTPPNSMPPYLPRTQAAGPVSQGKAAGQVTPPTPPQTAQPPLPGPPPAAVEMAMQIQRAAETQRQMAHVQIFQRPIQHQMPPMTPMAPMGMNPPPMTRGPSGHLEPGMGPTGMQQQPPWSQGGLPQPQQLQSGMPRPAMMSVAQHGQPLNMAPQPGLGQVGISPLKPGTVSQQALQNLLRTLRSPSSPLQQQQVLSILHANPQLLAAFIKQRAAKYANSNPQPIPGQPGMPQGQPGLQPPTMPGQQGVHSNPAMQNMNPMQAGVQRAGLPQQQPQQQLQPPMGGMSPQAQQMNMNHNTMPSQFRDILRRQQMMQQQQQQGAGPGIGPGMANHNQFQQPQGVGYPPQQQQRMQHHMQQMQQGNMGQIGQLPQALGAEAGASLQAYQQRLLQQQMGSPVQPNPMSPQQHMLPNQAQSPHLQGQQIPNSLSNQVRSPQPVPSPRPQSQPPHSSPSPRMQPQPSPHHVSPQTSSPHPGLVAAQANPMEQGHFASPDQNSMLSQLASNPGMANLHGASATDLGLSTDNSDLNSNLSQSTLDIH

Row | Binder | binding result [1] | stoichiometry N [2]
1 | B1 | binds | –
2 | B2 | – | 1
